Source: US20180094059A1 (UNIVERSITAT STUTTGART, published 2018)
Each block holds one binder with its values, some of them ahead of it.

Columns and labels:
[1] = target: T1, DcR2-Fc (human, UniProt Q9UBN6 56-211); test: ELISA, coated DcR2-Fc (3 µg/ml), anti-Flag-HRP detection
T1 construct: extracellular domain; also called TRAIL-R4-Fc; not shown: Fc-part
T1 sequence (looked up): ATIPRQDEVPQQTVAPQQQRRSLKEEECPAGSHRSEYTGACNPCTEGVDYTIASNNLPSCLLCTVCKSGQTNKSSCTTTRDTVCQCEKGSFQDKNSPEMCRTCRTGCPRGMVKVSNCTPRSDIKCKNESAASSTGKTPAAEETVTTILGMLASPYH

[2] = target: T2, TRAIL-R2-Fc (human, UniProt O14763 56-210); test: ELISA, coated DR5-Fc (3 µg/ml), anti-Flag-HRP detection
T2 construct: extracellular domain; also called DR5-Fc; DR5-Fc fusion protein; not shown: Fc-part

[3] = target: T3, EGFR on EGFR-positive tumor cell lines (UniProt P00533 25-1210, limits assumed); test: cell-based or functional assay
[4] = target: T4, TRAIL-R1-Fc (human, UniProt O00220 24-239); test: ELISA, coated DR4-Fc (3 µg/ml), anti-Flag-HRP detection
T4 construct: extracellular domain; also called DR4-Fc; not shown: Fc-part

[5] = target: T3, EGFR on EGFR-positive tumor cell lines; test: flow cytometry, HCT116 cells
[6] = target: T3, EGFR on EGFR-positive tumor cell lines; test: flow cytometry, Colo205 cells
[7] = target: T3, EGFR on EGFR-positive tumor cell lines; test: flow cytometry, HCT116 cells; remark: listed apart in the source
[8] = target: T3, EGFR on EGFR-positive tumor cell lines; test: flow cytometry, Colo205 cells; remark: listed apart in the source
[9] = target: T5, EGFR-Fc (UniProt P00533 25-645); test: ELISA, EGFR-Fc
T5 construct: also called purified EGFR-Fc; not shown: Fc part

[10] = target: T6, HER3-Fc (UniProt P21860 20-643); test: ELISA, HER3-Fc
T6 construct: not shown: Fc part

[11] = target: T2, TRAIL-R2-Fc; test: ELISA, TRAIL-R2-Fc
Procedure: The new scTRAIL₃-[sequence] fusion proteins were evaluated concerning their ability to bind to their corresponding target antigen and TRAIL-R2 by ELISA as well as by IF flow cytometry using intact Colo 205 cells. Antigen binding was analyzed in ELISA using Fc fusion proteins of EGFR, HER2 and HER3.

binding result [1]: binds | binding result [2]: binds | binding result [4]: binds
B1: Db10-Glyco-scTRAIL3-FAVSGAA (other)
chain: LEASDYKDDDDKGAEVQLVESGGGLVQPGGSLRLSCAASGFSLTNYGVHWVRQAPGKGLEWLGVIWSGGNTDYNTPFTSRFTISRDNSKNTLYLQMNSLRAEDTAVYYCARALTYYDYEFAYWGQGTTVTVSSGGGGSGGGGSDIQLTQSPSFLSASVGDRVTITCRASQSIGTNIHWYQQKPGKAPKLLIKYASESISGVPSRFSGSGSGTEFTLTISSLQPEDFATYYCQQNNNWPTTFGAGTKLEIKRAAAGNGTSNGTSEFGGAAAHITGTRGRSNTLSSPNSKNEKALGRKINSWESSRSGHSFLSNLHLRNGELVIHEKGFYYIYSQTYFRFQEEIKENTKNDKQMVQYIYKYTSYPDPILLMKSARNSCWSKDAEYGLYSIYQGGIFELKENDRIFVSVTNEHLIDMDHEASFFGAFAVSGAAAHITGTRGRSNTLSSPNSKNEKALGRKINSWESSRSGHSFLSNLHLRNGELVIHEKGFYYIYSQTYFRFQEEIKENTKNDKQMVQYIYKYTSYPDPILLMKSARNSCWSKDAEYGLYSIYQGGIFELKENDRIFVSVTNEHLIDMDHEASFFGAFAVSGAAAHITGTRGRSNTLSSPNSKNEKALGRKINSWESSRSGHSFLSNLHLRNGELVIHEKGFYYIYSQTYFRFQEEIKENTKNDKQMVQYIYKYTSYPDPILLMKSARNSCWSKDAEYGLYSIYQGGIFELKENDRIFVSVTNEHLIDMDHEASFFGAFAVS
modifications: glycosylated connecting peptide
notes: also called Db10hu225-Glyco-scTRAIL3-FAVSGAA; Db10-glyco-scTRAIL3-FAVSGGA
EC50 of cell death induction, Colo205, with Bortezomib [3]: 0.013 nM | EC50 of cell death induction, Colo205, with Bortezomib + Cetuximab [3]: 0.066 nM | EC50 of cell death induction, HCT116, with Bortezomib [3]: 0.039 nM | EC50 of cell death induction, HCT116, with Bortezomib + Cetuximab [3]: 0.298 nM | EC50 of cell death induction, HT1080, with Bortezomib [3]: 0.0007 nM | EC50 of cell death induction, HT1080, with Bortezomib + Cetuximab [3]: 0.008 nM

EC50 [5]: 0.07 nM | EC50 [6]: 0.028 nM | EC50 [7]: 0.008 nM | EC50 [8]: 0.06 nM | EC50 [9]: 0.156 nM
B2: anti-EGFR IgG (antibody, V domains shown)
VH: EVQLVESGGGLVQPGGSLRLSCAASGFSLTNYGVHWVRQAPGKGLEWLGVIWSGGNTDYNTPFTSRFTISRDNSKNTLYLQMNSLRAEDTAVYYCARALTYYDYEFAYWGQGTTVTVSS
VL: DIQLTQSPSFLSASVGDRVTITCRASQSIGTNIHWYQQKPGKAPKLLIKYASESISGVPSRFSGSGSGTEFTLTISSLQPEDFATYYCQQNNNWPTTFGAGTKLEIKR
notes: EGFR-specific human IgG1 with mutated Fc domain (ADCC/CDC), kappa light chain, N-terminal FLAG tag on the heavy chain; derived from cetuximab by humanization; also called hu225 (anti-EGFR) IgG; anti-EGFR human IgG1 scaffold antibody

EC50 [10]: 11.6 nM | EC50 [11]: 2.65 nM
B3: scFv3M6-EHD2-scTRAIL3-FLVGGGPQRVA (other)
chain: EVQLLESGGGLVQPGGSLRLSCAASGFTFSHYVMAWVRQAPGKGLEWVSSISSSGGWTLYADSVKGRFTISRDNSKNTLYLQMNSLRAEDTAVYYCTRGLKMATIFDYWGQGTLVTVSSGGGGSGGGGSGGGGSQSALTQPASVSGSPGQSITISCTGTSSDVGSYNVVSWYQQHPGKAPKLIIYEVSQRPSGVSNRFSGSKSGNTASLTISGLQTEDEADYYCSSYAGSSIFVIFGGGTKVTVLAAAGGSGGDFTPPTVKILQSSCDGGGHFPPTIQLLCLVSGYTPGTINITWLEDGQVMDVDLSTASTTQEGELASTQSELTLSQKHWLSDRTYTCQVTYQGHTFEDSTKKCADSNGGSGGASSGGGPQRVAAHITGTRGRSNTLSSPNSKNEKALGRKINSWESSRSGHSFLSNLHLRNGELVIHEKGFYYIYSQTYFRFQEEIKENTKNDKQMVQYIYKYTSYPDPILLMKSARNSCWSKDAEYGLYSIYQGGIFELKENDRIFVSVTNEHLIDMDHEASFFGAFLVGGGPQRVAAHITGTRGRSNTLSSPNSKNEKALGRKINSWESSRSGHSFLSNLHLRNGELVIHEKGFYYIYSQTYFRFQEEIKENTKNDKQMVQYIYKYTSYPDPILLMKSARNSCWSKDAEYGLYSIYQGGIFELKENDRIFVSVTNEHLIDMDHEASFFGAFLVGGGPQRVAAHITGTRGRSNTLSSPNSKNEKALGRKINSWESSRSGHSFLSNLHLRNGELVIHEKGFYYIYSQTYFRFQEEIKENTKNDKQMVQYIYKYTSYPDPILLMKSARNSCWSKDAEYGLYSIYQGGIFELKENDRIFVSVTNEHLIDMDHEASFFGAFLV
